The target in experiment [1] is recombinant, monomeric JR-FL gp120 (full-length) (HIV-1 JR-FL) (UniProt P20871). Put plainly: JR-FL gp120 (2 µg/ml) against 125I-MIP-1β on activated CD4+ T cells; antibody at 20 µg/ml.
The target of experiment [2] is CCR5 D2A/D11A/E18A, HA-tagged (human) (UniProt P51681). The experiment is described as follows: cell-based or functional assay.
Experiment [3] deals with CCR5 E18A, HA-tagged (human) (UniProt P51681). Put plainly: cell-based or functional assay.
Experiment [4] concerns the target HIV-1 JR-FL envelope glycoproteins (membrane-bound gp120/gp41) (HIV-1 JR-FL). The experiment is described as follows: cell-based or functional assay.
Experiment [5] addresses chemokine receptor C-C CKR-5 (human) (human) (UniProt P51681). Put plainly: 125I-MIP-1β (0.1 nM) competition on activated CD4+ T cells; gp120 at 0.1 µg/ml.
For experiment [6] the target is unchanged. Put plainly: 125I-MIP-1β (0.1 nM) competition on activated CD4+ T cells; gp120 at .05 µg/ml [sic].
Experiment [7] shares this target. Put plainly: 125I-MIP-1β (0.1 nM) competition on activated CD4+ T cells; gp120 at 0.2 µg/ml.
For experiment [8] the target is unchanged. Put plainly: 125I-MIP-1β (0.1 nM) competition on activated CD4+ T cells; gp41 at 5 µg/ml.
Experiment [9] has the same target. The experiment is described as follows: 125I-MIP-1β (0.1 nM) competition on activated CD4+ T cells; gp120 at 20 µg/ml.
The target is the same in experiment [10]. The experiment is described as follows: 125I-MIP-1β (0.1 nM) competition on activated CD4+ T cells; gp120 at 5 µg/ml.
Experiment [11] has the same target. Put plainly: 125I-MIP-1β competition, CD4- CCR-5+ 293 cells against activated CD4+ T cells.
Experiment [12] addresses wild-type CCR5, HA-tagged at the C-terminus (human) (UniProt P51681).
For experiment [13], the target named is chemokine receptor C-C CKR-5 (human) (human) (UniProt P51681). The experiment is described as follows: 125I-MIP-1β (0.1 nM) competition on activated CD4+ T cells; gp120 at 50 µg/ml.
Experiment [14] has the same target. Put plainly: 125I-MIP-1β competition on CD4- CCR-5+ 293 cells; gp120 at 50 µg/ml; strongest competition observed.
Experiment [15] addresses CD4 on the cell surface (human) (human) (UniProt P01730). The experiment is described as follows: cell-based or functional assay.
Experiment [16] addresses CCR5 R274A/D276A, HA-tagged (human) (UniProt P51681). The experiment is described as follows: cell-based or functional assay.
Experiment [17] concerns the target CCR5 Y184A, HA-tagged (human) (UniProt P51681). The experiment is described as follows: cell-based or functional assay.
Experiment [18] deals with wild-type CCR5, HA-tagged at the C-terminus (human) (UniProt P51681). The experiment is described as follows: cell-based or functional assay.
Experiment [19] addresses CCR5 E262A, HA-tagged (human) (UniProt P51681). The experiment is described as follows: cell-based or functional assay.
Experiment [20] deals with chemokine receptor C-C CKR-5 (human) (human) (UniProt P51681). Put plainly: cell-based or functional assay.
In experiment [21] the target is CCR5 K22A, HA-tagged (human) (UniProt P51681). The experiment is described as follows: cell-based or functional assay.
In experiment [22] the target is CCR5 Q188A, HA-tagged (human) (UniProt P51681). Put plainly: cell-based or functional assay.
Experiment [23] has as its target CCR5 K191A/N192A, HA-tagged (human) (UniProt P51681). The experiment is described as follows: cell-based or functional assay.
Experiment [24] has as its target CCR5 H181A, HA-tagged (human) (UniProt P51681). Put plainly: cell-based or functional assay.
In experiment [25] the target is CCR5 D11A, HA-tagged (human) (UniProt P51681). Put plainly: cell-based or functional assay.
For experiment [26], the target named is CCR5 N13A, HA-tagged (human) (UniProt P51681). The experiment is described as follows: cell-based or functional assay.
Experiment [27] deals with CCR5 D95A, HA-tagged (human) (UniProt P51681). Put plainly: cell-based or functional assay.
Experiment [28] concerns the target CCR5 K26A, HA-tagged (human) (UniProt P51681). The experiment is described as follows: cell-based or functional assay.
Experiment [29] deals with CCR5 R31A, HA-tagged (human) (UniProt P51681). Put plainly: cell-based or functional assay.
Experiment [30] has as its target CCR5 Q102A, HA-tagged (human) (UniProt P51681). The experiment is described as follows: cell-based or functional assay.
Experiment [31] deals with CCR5 K171A/E172A, HA-tagged (human) (UniProt P51681). Put plainly: cell-based or functional assay.
For experiment [32], the target named is CCR5 Q93A, HA-tagged (human) (UniProt P51681). The experiment is described as follows: cell-based or functional assay.
Experiment [33] deals with CCR5 D2A, HA-tagged (human) (UniProt P51681). The experiment is described as follows: cell-based or functional assay.
In experiment [34] the target is CCR5 H175A, HA-tagged (human) (UniProt P51681). The experiment is described as follows: cell-based or functional assay.

Where “and” joins values, the source holds several entries; their conditions need not be identical. Equal entries are not always repeated. Some results are limits rather than exact numbers.

For monoclonal antibody 48d, the Inhibition (%) of the gp120 competitive effect on 125I-MIP-1β binding in [1] amounted to 54%.
As to “HIV-1 JR-FL envelope glycoproteins (membrane-bound gp120/gp41)”, the co-receptor function of CCR5 (HIV-1 entry, luciferase), fold reduction was 50 fold in experiment [2]; 15 fold and 20 fold in [3].
As for monoclonal antibody 19b, the Inhibition (%) of the gp120 competitive effect on 125I-MIP-1β binding in experiment [1] came out at 88%.
On to monoclonal antibody A32, for which the Inhibition (%) of the gp120 competitive effect on 125I-MIP-1β binding in [1] came to 51%.
“synthetic ECL2 peptide of human CCR5 (from UniProt P51681 168-199)”: in experiment [4], the inhibition of fusion between HeLa-envJR-FL cells and PM1 cells (RET), peptide at 11 µg/ml came to 15%; the inhibition of fusion between HeLa-envJR-FL cells and PM1 cells (RET), peptide at 33 µg/ml stood at 65%; the inhibition of fusion between HeLa-envJR-FL cells and PM1 cells (RET), peptide at 100 µg/ml came out at 97%.
Consider monoclonal antibody 17b, for which the Inhibition (%) of the gp120 competitive effect on 125I-MIP-1β binding in experiment [1] is 79%.
With “soluble, oligomeric 92RW020 gp120/gp41 complex”, the percentage inhibition of 125I-MIP-1β binding in experiment [5] was found to be 21%; in experiment [6], 74%; in experiment [7], 49%.
With monoclonal antibody 697-D, the Inhibition (%) of the gp120 competitive effect on 125I-MIP-1β binding in experiment [1] amounted to 3%.
Still for that read-out and setting: for monoclonal antibody 2G12 the value was 38%; for antibody D7324, -13%.
For monoclonal antibody IgG1b12, the Inhibition (%) of the gp120 competitive effect on 125I-MIP-1β binding in [1] amounted to 125%.
92TH014 gp120 (monomeric): the percentage inhibition of 125I-MIP-1β binding amounted to 6% in [5], 65% in [6] and 57% in [7].
As to recombinant gp41 (IIIB) ectodomain, the percentage inhibition of 125I-MIP-1β binding in experiment [8] was determined as 24%.
For CM243 gp120, the percentage inhibition of 125I-MIP-1β binding in experiment [5] was 17%; in [9], 76%; in experiment [6], 56%; in [7], 40%.
monoclonal antibody 15e: the Inhibition (%) of the gp120 competitive effect on 125I-MIP-1β binding in experiment [1] turned out to be 65%.
Turning to “recombinant, monomeric JR-FL gp120 (full-length), P20871 32-503 (other; other documents disagree on this pair)”, the percentage inhibition of 125I-MIP-1β binding worked out at 67% in experiment [10]; 44% in experiment [5]; 91% in experiment [9]; 95% in experiment [13]; 58% in [6]; 40% in [7]. The substance also had a fold higher gp120 concentration needed on CD4- cells than on CD4+ cells in experiment [11] above 100 fold. Further, the inhibition of 2D7-PE binding (%) in experiment [12] was determined as 70%. Further, the percent inhibition of MIP-1β binding in [14] was found to be 73%.
With CD4 MAb OKT4a (antibody), in experiment [15], the % Fusion (RET), LW5 CD4+ cells with HeLa-BRU cells, OKT4A at 3 ug/ml was 0% and the % Fusion (RET), LW5 CD4+ cells with HeLa-JR-FL cells, OKT4A at 3 ug/ml was 0%.
For monoclonal antibody 447-D, the Inhibition (%) of the gp120 competitive effect on 125I-MIP-1β binding in [1] is 109%.
On to W61D gp120, for which the percentage inhibition of 125I-MIP-1β binding in experiment [5] amounted to 39%; in experiment [9], 86%; in experiment [6], 65%; in experiment [7], 53%.
Regarding SF170 gp120, the percentage inhibition of 125I-MIP-1β binding is 87% in experiment [5] and 140% in [7].
Regarding “recombinant, monomeric LAI gp120 (full-length) (from UniProt P03377 33-516) (other; other documents disagree on this pair)”, the percentage inhibition of 125I-MIP-1β binding is -5% in experiment [10], -18% in experiment [9], -6% in experiment [13] and -1% in experiment [6].
With “soluble, oligomeric JR-FL gp120/gp41 complex”, the figures for the percentage inhibition of 125I-MIP-1β binding in [5], in experiment [6] and in [7] were 46%, 84% and 56%, respectively.
On to “MIP-1α, recombinant human (from UniProt P10147 27-92) (ligand)”, for which the relative % inhibition of NLluc/JR-FL entry into U87MG-CD4 cells by 2 µg/ml chemokine (wild-type = 100) in [16] turned out to be 48%; in experiment [17], 102%; in [18], 100%; in [19] it was 100%; in experiment [21], 19%; in experiment [22], 95%. The relative % inhibition of NLluc/JR-FL entry into U87MG-CD4 cells by 2 µg/ml chemokine (wild-type = 100) in [23] came out at 14%; in experiment [24] it was 29%; in experiment [25], 10%; in experiment [26] it was 121%; in [27], 107%; in [28] it was 100%. The relative % inhibition of NLluc/JR-FL entry into U87MG-CD4 cells by 2 µg/ml chemokine (wild-type = 100) in experiment [29] was -5%; in [30], 107%; in experiment [31], 21%; in experiment [32], 88%; in experiment [33] it was 81%; in [3], 100%. For the same substance, in experiment [34], the relative % inhibition of NLluc/JR-FL entry into U87MG-CD4 cells by 2 µg/ml chemokine (wild-type = 100) worked out at 119%. The substance further came in with a % Fusion (RET), LW5 CD4+ cells with HeLa-JR-FL cells, chemokine at 533 ng/ml in experiment [20] of 72%. Further, in experiment [20], the % Fusion (RET), PM1 cells with HeLa-JR-FL cells, chemokine at 400 ng/ml stood at 39%. The % luciferase activity, entry of ADA env-complemented virus into PM1 cells, chemokine at 100 ng/ml in [20] was 54%. This substance had a % luciferase activity, entry of BaL env-complemented virus into PM1 cells, chemokine at 100 ng/ml in [20] of 54%.

These data come from patent US20040086528A1.
